Measured values as given in US20230272048A1 (UNIVERSITY OF MELBOURNE, published 2023).

T1: SS-B (human, UniProt P05455 1-408)
T1 sequence (looked up): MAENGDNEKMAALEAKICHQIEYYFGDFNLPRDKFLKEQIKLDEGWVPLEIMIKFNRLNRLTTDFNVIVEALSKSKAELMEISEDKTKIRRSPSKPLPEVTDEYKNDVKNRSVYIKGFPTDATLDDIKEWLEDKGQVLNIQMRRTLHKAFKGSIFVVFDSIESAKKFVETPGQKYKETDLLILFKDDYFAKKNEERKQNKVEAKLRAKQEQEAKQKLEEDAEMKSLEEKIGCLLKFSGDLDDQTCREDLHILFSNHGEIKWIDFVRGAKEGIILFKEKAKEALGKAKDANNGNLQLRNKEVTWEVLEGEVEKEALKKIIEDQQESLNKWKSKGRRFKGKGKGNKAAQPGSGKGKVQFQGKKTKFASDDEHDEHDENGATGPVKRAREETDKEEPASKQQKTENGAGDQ

T2: Jo-1 (human, UniProt P12081 1-509)
T2 sequence (looked up): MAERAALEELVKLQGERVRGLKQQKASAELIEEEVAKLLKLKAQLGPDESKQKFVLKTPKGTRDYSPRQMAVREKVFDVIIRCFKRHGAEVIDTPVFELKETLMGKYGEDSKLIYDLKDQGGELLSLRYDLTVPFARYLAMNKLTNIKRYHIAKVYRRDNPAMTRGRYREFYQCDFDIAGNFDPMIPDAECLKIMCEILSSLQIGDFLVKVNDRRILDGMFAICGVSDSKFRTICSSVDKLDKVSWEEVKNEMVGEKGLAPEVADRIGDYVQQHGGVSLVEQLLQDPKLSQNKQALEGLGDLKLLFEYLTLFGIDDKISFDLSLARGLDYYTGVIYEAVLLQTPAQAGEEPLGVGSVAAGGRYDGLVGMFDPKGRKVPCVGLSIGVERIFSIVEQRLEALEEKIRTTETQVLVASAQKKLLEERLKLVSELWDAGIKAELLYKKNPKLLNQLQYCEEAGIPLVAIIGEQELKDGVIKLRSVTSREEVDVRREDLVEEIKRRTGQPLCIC

T3: Scl-70 (human, UniProt P11387 1-765)
T3 sequence (looked up): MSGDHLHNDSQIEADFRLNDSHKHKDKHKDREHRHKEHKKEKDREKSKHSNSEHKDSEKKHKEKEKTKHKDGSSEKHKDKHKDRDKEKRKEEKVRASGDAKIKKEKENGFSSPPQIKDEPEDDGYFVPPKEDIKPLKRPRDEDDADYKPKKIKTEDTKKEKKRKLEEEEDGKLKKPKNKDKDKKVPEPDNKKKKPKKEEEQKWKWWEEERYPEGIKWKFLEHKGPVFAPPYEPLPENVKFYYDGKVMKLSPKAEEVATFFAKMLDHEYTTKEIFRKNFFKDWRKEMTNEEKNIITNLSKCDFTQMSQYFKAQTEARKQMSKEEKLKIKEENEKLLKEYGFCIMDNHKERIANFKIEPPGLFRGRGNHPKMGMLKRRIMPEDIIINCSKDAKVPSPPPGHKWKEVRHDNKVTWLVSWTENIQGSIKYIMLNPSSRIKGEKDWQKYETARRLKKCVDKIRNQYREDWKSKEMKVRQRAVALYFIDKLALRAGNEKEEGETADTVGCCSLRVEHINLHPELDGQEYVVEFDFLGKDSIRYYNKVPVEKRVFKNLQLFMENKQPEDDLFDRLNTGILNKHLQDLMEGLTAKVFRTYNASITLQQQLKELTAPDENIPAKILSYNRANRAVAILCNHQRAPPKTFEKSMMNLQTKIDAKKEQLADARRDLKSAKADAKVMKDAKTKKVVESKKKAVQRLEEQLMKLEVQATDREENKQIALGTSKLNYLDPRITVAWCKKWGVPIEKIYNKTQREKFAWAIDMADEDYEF

T4: CenpB (human, UniProt P07199 1-599)
T4 sequence (looked up): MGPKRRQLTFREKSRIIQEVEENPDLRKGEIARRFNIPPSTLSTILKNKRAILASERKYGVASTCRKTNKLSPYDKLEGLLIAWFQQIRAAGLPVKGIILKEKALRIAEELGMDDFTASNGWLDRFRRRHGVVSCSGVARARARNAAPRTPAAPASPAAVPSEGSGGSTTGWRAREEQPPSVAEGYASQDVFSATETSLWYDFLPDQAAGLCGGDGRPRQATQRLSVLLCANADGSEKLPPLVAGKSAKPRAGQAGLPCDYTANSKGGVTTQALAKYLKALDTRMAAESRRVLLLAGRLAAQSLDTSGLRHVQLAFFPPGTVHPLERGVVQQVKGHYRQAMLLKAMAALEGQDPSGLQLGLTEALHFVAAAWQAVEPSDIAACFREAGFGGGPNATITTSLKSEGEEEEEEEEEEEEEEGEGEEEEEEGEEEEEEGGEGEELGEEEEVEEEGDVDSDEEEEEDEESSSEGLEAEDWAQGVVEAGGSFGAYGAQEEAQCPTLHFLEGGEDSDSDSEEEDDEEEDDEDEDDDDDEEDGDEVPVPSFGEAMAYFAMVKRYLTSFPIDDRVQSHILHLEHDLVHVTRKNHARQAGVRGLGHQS

B1: MEL-1872 (antibody)
VH: KVQLRESGPSLVKPSQTLSLTCTASGFSLSDKAVGWVRQAPGQPLEWLGTIDTTGNAVYNPGLKSRLSITKDNSKSQVSLSLSSVTTEDSATYHCSTVHQKTRRSCPSDYSFICDCEGTGSHCCRASNCPYYCNYGRDRMCTGRSNIHEWHVDAWGQGLLVTVSS
VL: QAVLTQPSSVSGSLGQRVSTTCSGSSSNVGNGYVSWYQLIPGSAPRTLIYGDTSRASGVPDRFSGSRSGNTVTLTISSLQAEDEADYFCASAEDGSSNAVFGRGTTLTV
notes: also called H 1872; BrNAb MEL-1872
B2: MEL-2129 (antibody)
VH: KVQLRESGPSLVKPSQTLSLTCTASGFSLSDKAVGWVRQAPGKALEWLGSIDTGGNAGYNPGLKSRLSITKGNSKSQVSLSVSSVTTEDSATYYCSTVHQKTRRSCPVDYYYSCDCEGSGSHCCSASNCPYYCKYGRDRVCTDKHTYSYEWYVDAWGQGLLVTVSS
VL: B1 VL
notes: also called BrNAb MEL-2129
B3: MEL-1842 (antibody)
VH: KVQLQESGPSLVKPSQTLSLTCTASGFSLSDKAVGWVRQAPGQALEWLGSIDTGGNADYNPGLKSRLSITKDNAKSQVSLSVSSVTTEGSATYYCSTVHQKTLRSCPSDYPYICDCEDTGSHCCRATNCPYYCNHGRDRMCTGRTYTYEWHVEAWGQGLLVTVSS
VL: B1 VL
notes: also called H 1842; BrNAb MEL-1842

Legend:
[1] = molecular target: T5, S364A (HIV-1); assay: capture ELISA on Env of lysed AD8 pseudovirus, % of WT
T5 construct: full-length Env of lysed pseudovirus; HXB-2 numbering

[2] = molecular target: T1, SS-B; assay: single autoantigen ELISA (AESKULISA ANA-8Pro), FIG. 9A; antibody printed as '1879'
Source text: (§1) Polyreactivity assay: Single autoantigen reactivity. […] ANA-8Pro (Aesku) for U1-ribonucleoprotein (RNP), SnRNP/Sm, Sm, SS-A, SS-B, Jo-1, Scl-70, and CenpB. The 96 wells were coated with these cellular and nuclear antigens for the qualitative detection of mAbs reactivity. The cut-off calibrator, negative control and positive control were provided by the manufacturer.

[3] = molecular target: T2, Jo-1; assay: as above
Source text: as §1

[4] = molecular target: T3, Scl-70; assay: as above
Source text: as §1

[5] = molecular target: T4, CenpB; assay: as above
Source text: as §1

[6] = molecular target: T1, SS-B; assay: single autoantigen ELISA (AESKULISA ANA-8Pro), FIG. 9A
Source text: as §1

[7] = molecular target: T2, Jo-1; assay: as above
Source text: as §1

[8] = molecular target: T4, CenpB; assay: as above
Source text: as §1

[9] = molecular target: T6, monomeric AD8 gp120 (HIV-1 AD8, clade B); assay: direct ELISA, plates coated with 1 µg/ml Env (FIG. 6C)
T6 construct: also called monomeric gp120; monomeric gp120 form of Env

| Binder | Env binding (%) at antibody EC50 [1] | binding result [2] | binding result [3] | binding result [4] | binding result [5] | binding result [6] | binding result [7] | binding result [8] | binding result [9] |
| --- | --- | --- | --- | --- | --- | --- | --- | --- | --- |
| B1 | 75% | no binding (tested: 100 µg/ml) | no binding (tested: 100 µg/ml) | no binding (tested: 100 µg/ml) | no binding (tested: 100 µg/ml) | – | – | – | – |
| B2 | 42% | – | – | – | – | no binding (tested: 100 µg/ml) | no binding (tested: 100 µg/ml) | no binding (tested: 100 µg/ml) | – |
| B3 | – | – | – | – | – | no binding (tested: 100 µg/ml) | no binding (tested: 100 µg/ml) | no binding (tested: 100 µg/ml) | binds |
